Among the data in the supplement of paper PMC12042874 are amyloid nucleation score values, retold here.

± gives the uncertainty stated by the source.

A short description of the data set: amyloid nucleation score (Sup35N fusion, yeast selection) (log enrichment); library NNK2; higher = more nucleation; inactive = no reads after selection. The method in brief: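 The nucleation score is a DiMSum log enrichment of output over input reads, centred on the mode score of non-aggregating sequences. Sequences under 100 input reads were excluded, and reads came from Illumina sequencing of plasmid inserts. Psi-negative yeast expressing Sup35N fused to peptides of 20 random codons were induced with 100 μM copper sulfate for 24 hours and grown 7 days at 30°C on medium lacking adenine and uracil. Random libraries had three technical output replicates.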
On to GCWYIDIWL, for which the amyloid nucleation score was determined as 1.73 ± 0.11.

GCYRLNSLYATIQLRLLSWW returned an amyloid nucleation score of -0.46 ± 1.1.

Consider GDFSPYYCHCYIIMVCGMLG, for which the amyloid nucleation score entry is “inactive”.

In turn, GDIMKCSRCSATLGEPMKRC gave an amyloid nucleation score of 0.218 ± 1.1.

For GDQPRPKMLLSWHRFLLQQS, the amyloid nucleation score came out at 0.887 ± 0.19.

As for GDTCELCSVCQVNGV, the amyloid nucleation score came to 1.15 ± 0.17.

As to GDVGAVRVSCVCWLVLVKRG, the amyloid nucleation score is 0.066 ± 0.76.

With GDVLPNTSTGIFFSQPIMCA, the amyloid nucleation score was found to be 0.501 ± 0.43.

As for GDYYFV, the amyloid nucleation score was -1.19 ± 1.

GENSVLRSGNFKYKAWFCGG had an amyloid nucleation score of -0.342 ± 1.

GEPSCATCITVCLVLLSTQM: the amyloid nucleation score came to 6.48 ± 0.081.

Consider GEQLLED, for which the amyloid nucleation score entry is “inactive”.

Substance GESNMVYCLYQGTILSFAGW showed an amyloid nucleation score of 8.379 ± 0.04.

The substance GFDYLIFLNKHRLVMSWSFE displayed an amyloid nucleation score of -0.675 ± 1.1.

In turn, GFGNFVINDWSLR returned an amyloid nucleation score of -1.56 ± 1.1.

Regarding GFGSVLIW, the amyloid nucleation score is -0.523 ± 1.

Regarding GFIGNCYSFASLFGPMSHYV, the amyloid nucleation score was -0.588 ± 1.1.

GFIISFYISDSCKSLCWQPM yielded an amyloid nucleation score of 0.339 ± 0.53.

On to GFKVF, for which the amyloid nucleation score was -0.937 ± 0.31.

Take GFLFRFETRKTHRSCLSWIG: the amyloid nucleation score was 1.71 ± 0.13.

On to GFLIKWNNGVLVLVSAMMCI, for which the amyloid nucleation score is -0.598 ± 0.4.

Take GFMFGMLTISLRSVMFVARV: the amyloid nucleation score is -0.227 ± 0.32.

GFRDMGDHIDVREKFSWADA: the amyloid nucleation score result was “inactive”.

Regarding GFRIGTLLGTMINSMNCSFI, the amyloid nucleation score is 2.88 ± 0.12.

GFRSLNVSRANLCSYIRHLL returned an amyloid nucleation score of 0.02 ± 0.44.

GFSLNISKCVFLRFIWVFHF: the amyloid nucleation score is -0.447 ± 1.1.

Consider GFTENKIRDVFGVFHFIVGD, for which the amyloid nucleation score is 0.479 ± 0.8.

With GFVDTTLCMVNLFYGRKSHL, the amyloid nucleation score worked out at 7.862 ± 0.047.

The substance GFVGF had an amyloid nucleation score of 2.68 ± 0.17.

In turn, GFWFFIYVDCVLCVSPTRIN yielded an amyloid nucleation score of -0.663 ± 0.56.

GFWKTYNTFVLSWSRTNCLQ had an amyloid nucleation score of 0.431 ± 0.64.

With GFYYRRSMESGNTFSGCSTA, the amyloid nucleation score is -0.776 ± 0.62.

For GGCCSLPLACNKKGCCYWVA, the amyloid nucleation score came out at 1.84 ± 0.47.

Regarding GGCSTRWHKDVYDNGDNGDF, the amyloid nucleation score is -0.545 ± 0.63.

Regarding GGISNVCLSYVRFQEFVFNV, the amyloid nucleation score came out at 5.69 ± 0.093.

On to GGLTIAKFCESMVLLRFSRT, for which the amyloid nucleation score turned out to be 0.399 ± 0.32.

The substance GGQDDVIGLRKSVMAENRVH registered an amyloid nucleation score of 0.537 ± 0.42.

As for GGSKLVLLFE, the amyloid nucleation score is -0.81 ± 0.76.

Turning to GGSLPMFWKIMPGRHCGK, the amyloid nucleation score is -0.019 ± 0.32.

For GGVHGGFRSYVVAIWYGMLN, the amyloid nucleation score was -1.37 ± 1.1.

The substance GGVYASKYLCGYIKLSLKAS displayed an amyloid nucleation score of -0.154 ± 0.3.

Take GHKDSEDGLNTKFFRRSN: the amyloid nucleation score entry is “inactive”.

In turn, GICRKNDRTSDQRYFVKSL returned an amyloid nucleation score of -0.575 ± 0.53.

The substance GIFIFNAFEEMSVGKDSELL returned an amyloid nucleation score of -0.529 ± 0.27.

For GIGLRLCLSDRLWMRSIYVD, the amyloid nucleation score came out at 3.56 ± 0.082.

With GIHCGR, the amyloid nucleation score turned out to be 3.24 ± 0.06.

GIIAMHSLPRQIGIVLFIAR returned an amyloid nucleation score of 3.3 ± 0.088.

The substance GIIISRSNKLFFVKCCNN registered an amyloid nucleation score of 1.7 ± 0.079.

As to GIKDI, the amyloid nucleation score is -1.05 ± 0.79.

For the substance GIKHLKGTNDTSMYCHVSIV, the amyloid nucleation score was 0.298 ± 0.4.

Regarding GILWRGVLVRYVCPVVSTSI, the amyloid nucleation score entry was “inactive”.

On to GIMYGEFMPLR, for which the amyloid nucleation score result was “inactive”.

In turn, GIQGLSLYRLLSPALWSPSG displayed an amyloid nucleation score of 0.168 ± 0.49.

Take GISRGLILEVTC: the amyloid nucleation score is 1.12 ± 0.43.

The substance GITPRKDFFYYTLVDTCLVL had an amyloid nucleation score of -0.198 ± 0.46.

As for GITSFDTIYCGRVVYQRWLL, the amyloid nucleation score was 0.578 ± 0.81.
